The source of these data is patent US20210238276A1 (INTEGRAL MOLECULAR, published 2021).

What all share (assay): flow cytometry, alanine-scan library in HEK-293T
In general terms: A flow cytometer gives signals particle by particle.

In assay [1] the target is T1, hsGLUT4 G504A (human, UniProt P14672 1-509).
T1 sequence: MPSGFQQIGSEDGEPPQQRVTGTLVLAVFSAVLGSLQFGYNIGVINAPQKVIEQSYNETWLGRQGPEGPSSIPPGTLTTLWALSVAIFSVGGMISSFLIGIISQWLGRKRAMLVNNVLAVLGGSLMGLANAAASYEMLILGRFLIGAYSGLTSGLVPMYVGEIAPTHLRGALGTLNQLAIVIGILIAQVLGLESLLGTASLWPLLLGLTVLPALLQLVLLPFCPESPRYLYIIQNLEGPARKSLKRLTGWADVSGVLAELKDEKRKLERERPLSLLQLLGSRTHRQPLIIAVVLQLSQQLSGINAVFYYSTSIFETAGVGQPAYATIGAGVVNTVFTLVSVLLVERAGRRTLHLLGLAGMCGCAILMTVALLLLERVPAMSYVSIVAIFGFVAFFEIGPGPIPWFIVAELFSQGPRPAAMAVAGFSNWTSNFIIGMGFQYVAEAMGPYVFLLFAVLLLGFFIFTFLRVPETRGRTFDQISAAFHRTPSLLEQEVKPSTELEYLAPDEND
The method, boiled down: (§1)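 HEK-293T cells expressing individual GLUT4 alanine mutants were stained 48 h post-transfection with anti-GLUT4 scFv MAbs (2 μg/ml), then biotinylated secondary and streptavidin-PerCP, and read by high-throughput flow cytometry. Where used, cytochalasin B (10 uM final) was given for 30 min before and during primary antibody staining.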

Assay [2] deals with T2, hsGLUT4 N508A (human, UniProt P14672 1-509).
T2 sequence: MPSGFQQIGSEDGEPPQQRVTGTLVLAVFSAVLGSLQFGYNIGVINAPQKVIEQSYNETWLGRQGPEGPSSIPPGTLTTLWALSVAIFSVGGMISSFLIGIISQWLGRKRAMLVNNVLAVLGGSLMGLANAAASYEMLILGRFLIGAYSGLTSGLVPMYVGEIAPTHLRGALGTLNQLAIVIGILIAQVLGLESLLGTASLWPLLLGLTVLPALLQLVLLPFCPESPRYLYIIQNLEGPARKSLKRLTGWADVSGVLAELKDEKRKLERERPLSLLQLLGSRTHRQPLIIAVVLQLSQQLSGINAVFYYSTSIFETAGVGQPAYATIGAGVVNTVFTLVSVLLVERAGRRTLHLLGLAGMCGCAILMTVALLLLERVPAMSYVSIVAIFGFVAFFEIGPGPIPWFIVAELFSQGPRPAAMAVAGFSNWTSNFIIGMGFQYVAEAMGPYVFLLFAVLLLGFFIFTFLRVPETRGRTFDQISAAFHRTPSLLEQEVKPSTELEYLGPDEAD
The method, boiled down: as §1

For assay [3], the target named is T3, hsGLUT4 E507A (human, UniProt P14672 1-509).
T3 sequence: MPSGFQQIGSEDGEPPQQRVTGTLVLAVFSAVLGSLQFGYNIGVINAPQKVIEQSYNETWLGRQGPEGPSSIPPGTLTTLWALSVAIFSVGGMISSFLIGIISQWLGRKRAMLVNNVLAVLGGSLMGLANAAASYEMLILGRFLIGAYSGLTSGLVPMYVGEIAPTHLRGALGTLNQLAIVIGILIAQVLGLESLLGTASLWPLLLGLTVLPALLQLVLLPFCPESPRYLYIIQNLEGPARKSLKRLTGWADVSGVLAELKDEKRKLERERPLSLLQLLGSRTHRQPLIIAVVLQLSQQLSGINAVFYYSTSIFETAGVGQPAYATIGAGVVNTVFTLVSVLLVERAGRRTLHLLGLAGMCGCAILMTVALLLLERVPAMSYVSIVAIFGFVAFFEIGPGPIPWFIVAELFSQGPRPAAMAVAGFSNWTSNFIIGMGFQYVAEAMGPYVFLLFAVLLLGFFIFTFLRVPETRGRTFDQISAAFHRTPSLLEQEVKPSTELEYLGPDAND
An outline of the steps: as §1

The target of assay [4] is T4, hsGLUT4 Q298A (human, UniProt P14672 1-509).
T4 sequence: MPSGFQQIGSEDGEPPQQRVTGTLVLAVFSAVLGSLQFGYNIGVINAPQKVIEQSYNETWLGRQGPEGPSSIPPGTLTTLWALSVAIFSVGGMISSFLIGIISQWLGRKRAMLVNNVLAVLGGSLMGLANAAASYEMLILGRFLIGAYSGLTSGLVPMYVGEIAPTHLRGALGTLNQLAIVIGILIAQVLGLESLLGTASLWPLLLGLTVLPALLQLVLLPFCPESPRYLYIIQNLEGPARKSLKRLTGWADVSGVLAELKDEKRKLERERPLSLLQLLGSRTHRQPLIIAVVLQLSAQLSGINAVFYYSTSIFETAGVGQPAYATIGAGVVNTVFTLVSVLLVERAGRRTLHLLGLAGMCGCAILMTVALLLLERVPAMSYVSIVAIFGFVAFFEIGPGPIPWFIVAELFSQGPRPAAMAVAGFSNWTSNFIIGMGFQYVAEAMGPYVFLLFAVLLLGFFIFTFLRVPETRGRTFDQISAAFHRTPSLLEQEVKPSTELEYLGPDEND
An outline of the steps:
as §1

For 1F8 (antibody), the % of binding to wild type GLUT4 was determined as 120% in assay [1], 21% in assay [2], 127% in assay [3] and 87% in assay [4].

B1: AB108 (Fc fusion)
scFv: ALTQPSSVSANLGGTVKITCSGSSGSYGWYQQKAPGSAPVTLIYRNDKRPSDIPSRFSGSESGSTGTLTITGVQAEDEAVYFCGGYDSSAGYAAFGAGTTLTVLGQSSRSSGGGGSSGGGGSAVTLDESGGGLQTPGGALSLVCKASGFTFSSHGMGWVRQAPGKGLEWVGSISTGRYTFYAPAVKGRATISRDNGQSTLRLQLNNLRAEDTGTYYCTKCAGLNGCGGGEIDAWGHGTEVIVSS
notes: Bivalent scFv-Fc; also called MAb AB108; not shown: Fc fragment of human IgG1, cloned in frame with the scFv
On to B1, for which the “% of binding to wild type GLUT4” value in assay [1] turned out to be 141%; in assay [2] it was 89%; in assay [3], 53%; in assay [4], 78%.

B2: AB101 (scFv)
scFv: ALTQPSSVSANPGETVKITCSGSSNSYGWYQQKSPGSAPVTVIYYNDKRPSDIPSRFSGSKSDSTHTLTITGVRAEDEAVYFCGSYDSTYVGIFGAGTTLTVLGQSSRSSGGGGSSGGGGSAVTLDESGGGLQTPGGTLSLVCKASGFTFSSNAMGWVRQAPGKGLEWVAGISSDGRYTKYGSAVKGRATISRDNGQSTVRLQLNNLRAEDTGTYFCAKAFGNNYRRIYAGQIDAWGHGTEVIVSS
notes: Chicken-derived clone used as a control; the four lead clones were tested as scFv-human IgG1 Fc; also called MAb AB101
As to B2, the “% of binding to wild type GLUT4” value was determined as 8% in assay [1], 7% in assay [2], 5% in assay [3] and 107% in assay [4].

B3: AB111 (Fc fusion)
scFv: ALTQPSSVSANPGETVKITCSGSGSWYGWFQQKSPGSAPVTVIYSNDKRPSDIPSRFSGSKSGSTSTLTITGVQVEDEAVYYCGNWDIFGAGTTLTVLGQSSRSSGGGGSSGGGGSAVTLDESGGGLQTPGGALSLVCKASGFTFSSHGMGWVRQAPGKGLEWVASISTGRYTFYAPAVKGRATISRDNGQSTVRLQLNNLRAEDTATYYCTKCAGLNGCGGGEIDAWGHGTEVIVSS
notes: Bivalent scFv-Fc; also called MAb AB111; not shown: Fc fragment of human IgG1, cloned in frame with the scFv
For B3, the “% of binding to wild type GLUT4” value worked out at 172% in assay [1], 193% in assay [2], 119% in assay [3] and 145% in assay [4].
